From patent publication US20240218057A1 (ROCKEFELLER UNIVERSITY, published 2024)
Changes are numbered by the printed parent chain.

B1: C916 (antibody, V domains shown)
VH: EVQLVESGGGLVQPGGSLRLSCAASGFTFSNYDMHWVRQATGRGLEWVSTIGTAGDTYYPGSVKGRFTISRENAKNSLYLQMNSLRAGDTALYYCARVRYDSSGYFWSLDYWGQGTLVTVSS
VL: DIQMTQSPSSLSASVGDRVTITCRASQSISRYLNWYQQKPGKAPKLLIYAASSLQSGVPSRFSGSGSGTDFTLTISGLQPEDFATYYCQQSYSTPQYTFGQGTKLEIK
B2: C917 (antibody, V domains shown)
VH: B1 VH with R43K, E46D, L92V, Y100F, S102T
VL: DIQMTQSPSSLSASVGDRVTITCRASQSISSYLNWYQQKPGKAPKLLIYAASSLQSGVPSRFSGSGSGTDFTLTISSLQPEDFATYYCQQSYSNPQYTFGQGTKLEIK
B3: C914 (antibody, V domains shown)
VH: QVQLQESGPGLVKPSQTLSLTCTVSGGSITSGDYYWTWIRQPPGKGLEWIGYIYYSGNTYYNLSLRSRITISEDTSKNQFSLKLRSVTAADTAVYYCARAMITFGGVIVVLDYWGQGTLVTVSS
VL: QSALTQPPSASGSPGQSVTISCTGTSTDVGGYNFVSWYQQHPGKAPKLMIYEVSKRPSGVPDRFSGSKSGNTASLTVSGLQAEDEADYYCSSYAGSNILYVFGTGTKVTVL
B4: C915 (antibody, V domains shown)
VH: QVQLQESGPGLVKPSQTLSLTCTVSGGSISSGDYYWSWIRQPPGKGLEWIGYIYYSDSTYYNPSLRTRVTISVDTSKNQFSLKLTSVTAADTAVYYCARAMITFGGVIVLYDYWGQGTLVTVSS
VL: B3 VL with T27S, F34Y, S54T, D62A, N97I, I98L
B5: C918 (antibody, V domains shown)
VH: QVQLVESGGGLVKPGGSLRLSCTASGFTFSDYYMTWLRQAPGKGLEWVSYISSTSPYTSYADSVKGRFTISRDNARNSVYLQMNSLRAEDTAIYYCARVPPPQRLHPFDVWGQGTMVTVSS
VL: DIQMTQSPSTLSASVGDRVTITCRASQSISSWLAWYQQKPGKAPKLLIYQASSLESGVPSRFSGSGSGTDFTLTISSLQPDDFATYYCQQYFRYSWTFGQGTKVEI
B6: C912 (antibody, V domains shown)
VH: QVQLVESGGGVVQPGRSLRLSCAASGFSFSTYTMHWVRQTPDKGLEWVAVISDDGKNKYYADSMKGRFTISRDNSKNTLYLQMSSLRPEDTAVYYCARDLENVMIEVALESWGQGTLVTVSS
VL: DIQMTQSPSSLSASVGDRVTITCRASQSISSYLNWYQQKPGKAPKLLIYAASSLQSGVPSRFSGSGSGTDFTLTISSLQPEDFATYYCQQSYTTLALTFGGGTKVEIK
B7: C911 (antibody, V domains shown)
VH: QVQLVESGGGVVQPGGSLRLSCAASAFTFSSYAMHWIRQSPGKGLEWVAVISSDGSSKFYADSVKGRFTISRDNSKNTLYLQMNSLSAEDTAVYYCARDLENVLIEVALQDWGQGTLVTVSS
VL: DIQMTQSPSSLSASVGDRVTITCRASQSINSYLNWYQQKPGKAPKLLIYAASSLHSGVPSRFSGSGSGTDFTLTISSLQPEDFATYYCQQSYTTLALTFGGGTKVEIK
B8: C924 (antibody, V domains shown)
VH: QVQLVESGGGVVQPGRSLRLSCAASGFTFSSYGMHWVRQAPGKGLEWVAVISDDGSNKYYADSVKGRFTISRDNSKNTLYLQMNSLRAEDTAVYYCAKSWWLSENWFDPWGQGTLVTVSS
VL: EIVMTQSPATLSVSPGERATLSCRASQSVSSNLAWYQQKPGQAPRLLIYGASTRATGIPARFSGTGSGTEFTLTISSLQSEDFAVYYCQQYNNWPLTFGGGTKVEIK
B9: C925 (antibody, V domains shown)
VH: B8 VH with S31N, M34L, I51T, S56N, N57R, N74D, S85N, A88T
VL: B8 VL with S30R, K39R, S52F, G64V, T65S, S76D
B10: C938 (antibody, V domains shown)
VH: QVQLVESGGGVVQPGRSLRLSCAASGFTFRSHAMHWVRQAPGKGLEWVAIISSDGFNKYYADSVKGRFTISRDNSKNTLYVHMNSLRVEDTAIYYCASGLLWFETREISGAPDYGMAVWGQGATVTVSS
VL: DIQMTQSPSSLSASVGDRVTITCRASQNISNFLNWYQQKPGKAPKLLIYAASSLQSGVPSRYSGSGSGTDFTLTISSLQAEDFATYYCQQSYSTPLTFGGGTKVEIK
B11: C932 (antibody, V domains shown)
VH: QVQLVESGGSVVQPGKSLRLSCAGSGFAFSTYGMHWVRQAPGKGLEWVAVISSDGGNKYYADSVKGRFTISRDNYENTLYLQMNSLGAEDTAVYYCAKVALRGVFISLYYGMDVWGQGTTVTVSS
VL: SYELTQPPSVSVTPGQTASITCSGDKLGDKYACWFLQKPGQSPLLVIYQDTKRPSGIPDRLSGSKSGNTATLTISGTQAMDEADYYCQTWDSSAVVFGGGTKLTV
B12: C913 (antibody, V domains shown)
VH: EVQLVESGGVVVQPGGSLRLSCAASGFTFDDYSMHWVRQVPGKGLEWIAVIFWDGTSTYYADSVKGRFTISRDNSKKSLYLQMNSLRSEDTALYYCAKDSEDCSSTSCYVDHWGQGTLVTVSS
VL: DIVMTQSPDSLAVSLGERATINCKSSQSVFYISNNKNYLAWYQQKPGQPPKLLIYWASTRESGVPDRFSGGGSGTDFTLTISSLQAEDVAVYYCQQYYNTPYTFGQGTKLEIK
B13: C931 (antibody, V domains shown)
VH: QVQLVESGGGVVQPGRSLRLSCAASGFSFSTYGMHWVRQAPGKGLEWVAVISFDGSQKYYGDSVKGRFTISRDNPKNTLDLQMNSLRAEDTAVYYCAKVVVRGVIISLYYGMDVWGQGTTVTVSS
VL: not shown
B14: C934 (antibody, V domains shown)
VH: QVQLVQSGAEVKKPGASVKVSCKASGYTFTDYYIHWVRQAPGQGLEWMGWINPNSGGTNYAQKFQGRVTMTRDTSISTAYMDLSRLRSDDTAVYYCARDVIITMGRGVVFRMDVWGQGTTVTVSS
VL: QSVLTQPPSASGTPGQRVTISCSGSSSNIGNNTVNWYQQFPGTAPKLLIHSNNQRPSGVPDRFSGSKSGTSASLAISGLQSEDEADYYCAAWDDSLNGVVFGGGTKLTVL
B15: C929 (antibody, V domains shown)
VH: EVQLVESGGGLIQPGGSLRLSCAASGFTVSSNYMTWVRQAPGKGLEWVSVIYSGGTTYYADSVKGRFTISRDNSKNTLYLQMNSLRAEDTAVYYCARDLVVWGMDVWGQGTTVTVSS
VL: DIQLTQSPSFLSASVGDRVTITCRASQGISSYLAWYQQKPGKAPKLLIYAASTLQSGVPSRFSGSGSGTEFTLTISSLQPEDFATYYCQLLNSYPYTFGQGTKLEIK
B16: C936 (antibody, V domains shown)
VH: B15 VH with T35S, T56S, Y58F, V100G, V101T, W102G, G103L, M104F, V106Y, T112L
VL: DIQLTQSPSFLSASVGDRVTITCRASQGISSYLAWYQQKPGKAPKLLIYAASTLQSGVPSRFSGSGSGTEFTLTISSLQPEDFATYYCQQLDSYPPGTFGPGTKVDIK
B17: C930 (antibody, V domains shown)
VH: B15 VH with I12F, S21A, F27I, T35S, A40P, S53A, T56S, Y58F, F67L, M82I
VL: B15 VL with L90Q, S93T
B18: C937 (antibody, V domains shown)
VH: EVQLVESGGGLIQPGGSLRLSCAASELTVSSNYMSWVRQAPGKGLEWVSVIYPGGSTFYADSVKGRFTISRDNSKNTLYLQMNSLRAEDTAVYYCARDLGTGLFDYWGQGTLVTVSS
VL: B16 VL with Y87F, Q90L, D92N, Y94N
B19: C910 (antibody, V domains shown)
VH: QVQLVQSGAAVKKPGASVKVSCKASGYTFTSYDINWVRQAPGQGLEWMGWMNPNSGNTGFAQRFQGRATLSRDTSITTAYMELTTLRSEDTAVYYCARGRANYNSKFLLDNWGQGTLVTVSS
VL: QSALTQPASVSGSPGQSITISCTGTSSDVGSYNLVSWYQQHPGTAPKLMIYEGSKRPSGVSDRFSGYKSGNTASLTISGLQADDEADYYCCSFAGSTTRYVFGTGTRVTVL
B20: C927 (antibody, V domains shown)
VH: QVQLVESGGGVVQPGRSLRLSCVASGFTFSYFDMHWVRQAPGKGLEWVALISHDGSTTFYGDSARGRFTISRDNSRNTLDLQMNSLRPEDTAVYFCAKPVDAAMFDFWGQGTLVTVS
VL: SYELTQPPSVSVAPGKTARITCGGNNIGSKSVHWYQQRPGQAPVLVIYYDSDRPSGIPERFSGSNSGNTATLTISRVEAGDEADFYCQVWDRSTNHLVVFGGGTQLTVL
B21: C928 (antibody, V domains shown)
VH: QVQLVESGGGVVQPGRSLRLSCAASGFTFSFFDMHWVRQAPGKGLEWVADISYDGSNQYYGDSVKGRFTISRDNSKSTLYLQMNSLRAEDTAVYYCAKPVDTAMFDSWGQGTLVTVSS
VL: SYELTQPPSVSVAPGETARITCGGNNIGHKSVHWYQQQPGQAPVLVIYYDSERPSGIPERFSGSNSGNTATLTISRVEAGDEADYHCQVWDGGNDHLVIFGGGTKLTVL
B22: C935 (antibody, V domains shown)
VH: QVQLVESGGGVVQPGRSLRLSCAATGFTFSSYGMHWVRQAPGKGLEWVALIWYDGSNQYYVDSVKGRFTISRDNSKKTLYLQMNSLRVEDTAVYYCARDFSNSDMVTLSDAFDIWGQGTMVTVSS
VL: DIQLTQSPSFLSASVGDRVTIACRASQGISSYSSYLAWYQQKPGKAPKLLIYAASTLQSGVPSRFSGSGSGTEFTLTISSLQPEDFATYYCQQLNSYPLFTFGPGTKVDIK
B23: C920 (antibody, V domains shown)
VH: QLQLQESGPGLVKPSETLSLTCAVSGGSISNSPFYWGWIRQPPGKGLECIGSIYYSGSTYYNPSLKSRVTISVDTSKKQFSLKLSSVTAADTAVYYCARHFADGSGRVVDSWGQGILVTVSS
VL: EIVLTQSPATLSLSPGERATLSCRASQSVSSYLAWYQQKPGQAPSLLIYDVSNRATGIPARFSGSGSGTDFTLTISSLEPEDFAVYYCQQRINWPLYTFGQGTKLEIK
B24: C921 (antibody, V domains shown)
VH: B23 VH with G37A, S56T, K77T, S85R, S111Y, I116T
VL: B23 VL with S30T, S31T, S45R, N53S, I92S
B25: C922 (antibody, V domains shown)
VH: QVQLVESGGGLVKPGGSLRLSCAGSGFTFTDYYMAWIRQAPGKGLEWVSYISTSDRFINYADSVKGRFTISRDDAKNSLYLQMNSLRAEDTAVYYCARDGGGYDRFDHWGQGTLVTVSS
VL: DIQMTQSPSSLSASVGDRVTITCQASQDISNLLNWYQQKAGKAPKLLIYDASNLETGVPSRFSGSGSGTDFTFTISSLQPEDIATYYCLQYDNLPLTFGQGTKLEIK
B26: C923 (antibody, V domains shown)
VH: QVQLVESGGGLVKPGGSLRLSCAASGFTFSDYHMTWIRQAPGKGLEWVSYISNRSTYRNYADSVKGRFTISRDNAKNSLYLQMNSLRAEDTAVYYCARDGGAYDRFDYWGQGTLVTVSS
VL: B25 VL with S30K, N31K, L32F, A40P, F71L, L89Q
B27: C926 (antibody, V domains shown)
VH: QVQLVESGGGVVQPGRSLRLSCAASGFGLITYSMHWVRQAPGKGLEWVGLISFDGNTTYYADSVRGRFTISRDNLANILYLQMNSLRPDDTALYYCARDKRGVIRGLLNFWGQGSLVTVSS
VL: DIVMTQSPDSLAVSLGERATINCKSSQSLLPSSNSNNYLAWYQQKSGQPPNLLIYWASTRESGVPDRFSGSGSETDFSLTISNLQAEDVAVYYCQQYYNTPHTFGGGTKVEI

These binders were tested against T1, SARS-COV-2 RBD (SARS-COV-2, UniProt P0DTC2 319-539) (assay: ELISA, RBD coated on plate).
T1 construct: also called WT RBD

Binder	EC50 [ng/mL]
B1	1.97
B2	1.05
B3	1.59
B4	3.49
B5	1.78
B6	2.45
B7	2.36
B8	2.5
B9	2.26
B10	2.63
B11	3.57
B12	2.58
B13	2.57
B14	0.95
B15	2.07
B16	1.56
B17	1.24
B18	0.97
B19	2.47
B20	3.77
B21	4.14
B22	2.86
B23	2.35
B24	3.91
B25	2.42
B26	1.95
B27	4.72
